Source: the DeepSol protein solubility set

Experiment: soluble on expression in E. coli; label from the status in PepcDB or PDB records

Soluble on expression in E. coli, soluble:
SNAMKTEKDKMLAGEMYIADDEELVADRVEAKRLTRLYNEAVETGDERRFTLLNQLLGSSADGKAQINPDFRCDYGYNIHVGKSFFANFNCVILDVCEVRIGDHCMFAPGVHIYTATHPLHPVERNSGKEYGKPVKIGNNVWVGGGAIINPGVSIGDNAVIASGAVVTKDVPNNVVVGGNPAKVIKTIEE
MAHHHHHHMAYPYNAYLGYTQPPTQYGQPPVVAGAHGHLPVTTPLPYNAQSAYGGAQPPMPTSTGVYAPSARHMNDNQELMEWFRAVDTDGSGAISVPELNAALSSAGVPFSLATTEKLLHMYDKNHSGEITFDEFKDLHHFILSMREGFRKRDSSGDGRLDSNEVRAALLSSGYQVSEQTFQALMRKFDRQRRGSLGFDDYVELSIFVCRVRNVFAFYDRERTGQVTFTFDTFIGGSVSIL
SMRYRQITIPRGKDGFGFTICCDSPVRVQAVDSGGPAERAGLQQLDTVLQLNERPVEHWKCVELAHEIRSCPSEIILLVWRMVPQVKPGPD
MKKCRICGKKAIIYMPHHRLALCREHFVEWFEKYTERTIKEFKMFTKKDKVLVAISGGKDSLALWHVLRKLGYEADGLYINLGIGEYSEKSKEKVLKFAEKINGKAIIVDLKEELAGIPELVKITSREACSVCGLVKRYNFNKVAKEHGYNVIATGHNLDDEASALLANVLNWNEKYLGRKYPVLEEEAGFVRKVKPFCKFTEKETALYALLNGIDFIEEECPFSEDATSVFYKKILNEIEERSPGTKLRFYLDYLRKIYPKFRKEEEKKELQPCKVCGEPTVGEICPVCRLREKVEASSG
AELTCTDVSGLTAEEIQMRESLQYTDHSPYPDKTCANCQLYVPAESPDQCGGCQLIKGPIHPNGYCTSWVQKAT
MGSSHHHHHHSSGRENLYFQGMKVVFLICNPAAGGGRAGKIWNRVEDLLKKHGIDHKFAFTERPGHAMEISKKAFKEGYRRIAAFGGDGTVNEMVNGIFLNGYDLREVVFGWIPFGSGKDWARTIGVPLEIEEAIKMLKDGKEFVQDLGVGEYEKASGEIEKRAFVNVAGLFFDGFVTYRTNLLKRKNRVSYFSRIFSSIIEYDPPTARIQIDEKVWEKRVFSMNVGICKYNGGGMNQLPHAVPDDGLLAVTVINDIGKLRILANLHRVFNGKLLEHPGVEGYQAKKVVVEFQRDEPVEFDGESFWAKKIFFSIIPGVIRVLVKK
MSLSKFAERLQTVANKPEVFQKFSRGLERESLRYTPEGALTQTPHPKALGAALTHRWITTDFAESLLEFITPVSHEVDTLLAQMSDIHHFAQTKLGDEKLWPLSMPCYVGSEEGIVLAQYGSSNTGKMKTLYREGLKRRYGSLMQIISGVHFNFSFPESFWDALFGEQEESARQASKSAAYFGVIRNYYRFGWLIPYLFGASPALCSSFLQGRKTDLPFESIGKTLYLPYATSLRLSDLGYTNSAQSVLQIGFNSIEQYLQGLNEAIRTPSAEFAKLGVKVEGEYRQLNSNVLQIENELYAPIRPKRVTQSGERPSQALARAGVEYIEVRSLDVNPFSPIGINEDQVRFLDLFLAWTALSDSDPMDGCELACWRDNWRKVVLEGRKPGLELQIGCHGEVLTLQAWAKRVFADLRVIAETMDAALGGDAYQAVCAKLETWIENPELTLSAQILAEIKQHGGLGKTGCALGNEYRAVNLQHQYQFYSQDEMEQEVRRSTQAQADIEAKETLNFDAYLTQYFAYLQAVSEGGSHHHHHH
MSLTRFSVSPGDPMKKFVTLALTLSTLGASVASAQAVRVGMAYDAGGKADKSFNQSAYEGSQLAAKKLGIQVKDFEPSDPSQIIQGVRSFAKEGFDLTIGVGFSNNASITQVAKENPDLYFGLVDDVSTAKNVASLVFNEEQGSYLVGYLAAMNSSTGVVGFIGGMNIPLIHKFEAGYRAGVKAANPKATIISQYVGNTPEAWNNPGKAKEIAANMRGRGADIIFAAAGGSGNGLIDYIKQTPCLNASQLPKGVTFKSDNFKNVKKSAAYAKACTGNTRPMFFIGVDSNQNYLGDFDKNPATLNHGLTSMVKRVDNAVYALINEVKNDKFKAGERRFGLKDGGVAYAVDQYNKALLPAAQIAKVEAVKQQIIKGQIKVPTKEGGSHHHHHH
MKEVYRYAYHYAGRPVGEGRLEVERRRGGVRASLQAEFLPPLPPGRQRWQTELDAEGFSLRFQERVEGKEVRVFAVERLEEEGVVLVSQGKESLAYPYLAPYHDPLSLFLALPGLALEPGEVVRFPMPGGRVYVERLPDVEVEGRARRQYRLRPGLSLVQVEEGRLVRVAQQVGRHVFEAVLLEAEGP

Soluble on expression in E. coli, not soluble:
MTQQKLELTWFNKDQALIPQERGRYGYAWVDPHDPRYCQTHYLIEGETITGEQAPKQDGTQYGERADLEPTTDNLLINGESGDVLEALTRVPELADKYVGKVKCIYIDPPFNTAQTFANYEDNLEHSVWLTMMRDRLLHMKKLLSEDGSIWVHLDDVENHRMRLLMDEVFGAGNFVAEVVWEKTYSPRNDSKGIPAVTDTILVYRKSDQFSPNRLPRTAEMNARYKNPDHDRNGPWKSGDTTAPGNMSGKVQHPSVFAIQHPVTGQFIYPTYGRMWCFGQERILSSLSRYAPYRLAEPDMKSRSKRTGIPEEQLRADVFDLVVDETARQGDKTQAFRNISLGNWPEFFITDKGFGRKVPMSKSDGRVAPNLLRWEEVGHTDGAKKEITALFPNQAA
MGSDKIHHHHHHMHTCPRCDSKKGEVMSKSPVEGAWEVYQCQTCFFTWRSCEPESITNPEKYNPAFKIDPKETETAIEVPAVPEPKGLIRVNCMSDRLFELLDGSCLNEKQHEAFVLQTVSEDGWPHAAMISAGEIIALSRTDIRIALWKNTMTSANILRTGKAQFTAWWKGAAYYVKLECAPLPPLKDAEYERDRFSCRIVSVKEDVAKYADLTSGVRIQLHSPEEVLSRWKKTLEDLKR
MEVMRGVRVIEGMNGGRFPYCNVVVVGDVVIDAGAGLEVMRKVNASLLVLSHLHPDHSSGAWLFKDVLAPAEGRITLDTLARRFVAPDLVESWKRFISAATGLREFECERYEEGVVVKEPEIVAVPVKGHTMDHHVFLIEQKVLFGADVDLTSFGPFYGNPEADPYLFEREMDKLLDIDFEIFVSAHSKPVFGKELEHHHHHH
MVWDVETAKRFLEIIKDEPIYYPALIALHTGMRAGEILSLKWCDVNFETRVISIVKSERKNRGLKTVNLKTKTSKRAVYMNDILYKELKNLYEITKPKPDDFVCPRLPTGNLTVNYLSRKFKKLVKKHNFPLIRFHDLRHTFATLMLSLGVNTKIVAEILGHSDIKLTADTYSHVLPTMQEEAMKEFVKLWKLEHHHHHH
MGSDKIHHHHHHMKATSSFKGQTTGLYIVPTPIGNLEDMTYRAVRILQESDLVAAEDTRQTMKLFNHFKIETKLVSYHEHNKQVSGARLLADLHAGKQIALVSDAGMPGISDPGSDLIREAIAEDIPVIVLPGANAALTALVASGLATERFLYYGFLPRKKKERREALETVRYEKGSLIFYEAPHRLKEMLGALRDVLGDRQLTLARELTKRYEEYIRGSVTEALEWAEEEVRGEFVVIVEGSTEERPAEEEQKADPLQQIERYIEQGEKPNAALKRVAKERGLDRQELYLRYHES
MPKIAEIEGTPNPNALKFVLKEPLTWGVAKSYDHAEQAVDDPLAAALFDIDHVTNVFYVDRWITITQDGGADWQDLAREVADPIRAAPAATDQSAAVVAAASRTLADLSEEDQQRLERINILLDEEVRPFLQHDGGDLHVLALEGNILRIHYQGACGTCPSSISGTLRGIEQLLRTIEPDIRVVSA
MGSDKIHHHHHHMKSIKELYRIGTGPSSSHTMGPRKAAEMFLTRHPEAASFKVTLYGSLAATGKGHMTDVAIIDTLKPTAPVDIIWQPKIFLPFHPNGMNFVALDAGGNELENWTVYSVGGGALAEDNKQPSIESPEVYSMNSMTEILDWCEHTGKSYWEYVKECEDPDIWDYLKEVWDTMKESVQRGLEQEGVLPGPLNLRRKASTYYIRATGYKASLQSRGLVFAYALAVSEENASGGKIVTAPTCGSCGVMPAVLYHLAKSREFSEMRILRALATAGLIGNIVKQNASISGAEVGCQGEVGVACAMASAAANQLFGGSPAQIEYAAEMGLEHHLGMTCDPVCGLVQIPCIERNAYAAARALDANLYSSFTDGMHRVSFDKVIQVMKQTGHDLPSLYKETSEGGLAKDYKPM
MGSDKIHHHHHHMSDVYIFCLSMGSPTLNTRVLTNSMELKVGCCGFPVSMKRYFETFDVVEVQKTFYKPPEVKTAEKWRKSAPEDFEFTIKAWQVITHPPSSPTYKKAGIKFENCGFFRPTEVVFMAWEETKKIAKALKAEIIVFQTPKSFRDTAENMENMRAFFSSIDGSFTFCFEPRGWSEESVRAICEELDLVHVVDPFVSKQLYGEICYYRLHGFDYKHKYTDDELEKLLGIVDRDGYVMFNNVHMFDDALRFKKLVEREAKSK
MSLSNDIELTIDIELQSYLTSLFEGNAGAAIIMNVNDGSILAAGSFPEYDLNPFVTGISFKDWDELSNSLDHPFTNKLINGYYPPGSVVKMGVGLSFLNSKNISPSTHYVCNGSIELGGRFFRCWNRSGHGPVDLKHAIKYSCDVYFYNGSLQVGIDQISETLSRIGFGVKTGVDLPSEFVGTLPSKEWKMQRYRQSWFQGDTLNTAIGQGNFLATPMQIARYTAQIAKSGEVIPHFLKSIENNNTTIENQMDENKKEIFTLFEKSQLPYIRDAMYAVANEQGGTSYRYLHNLDVKVAAKTGTAQVVGFSQTDKNRVDEKQFEYYTRSHAWLTSYAPYSKPKYVVTVLLEHGGRNITSGATVAKIYQKMIELGYFKEGHHHHHH
MGSDKIHHHHHHMELKKLMEHISIIPDYRQTWKVEHKLSDILLLTICAVISGAEGWEDIEDFGETHLDFLKQYGDFENGIPVHDTIARVVSCISPAKFHECFINWMRDCHSSDDKDVIAIDGKTLRHSYDKSRRRGAIHVISAFSTMHSLVIGQIKTDEKSNEITAIPELLNMLDIKGKIITTDAMGCQKDIAEKIQKQGGDYLFAVKGTQGRLNKAFEEKFPLKELNNPEHDSYAISEKSHGREEIRLHIVCDVPDELIDFTFEWKGLKKLCVAVSFRSIIAEQKKEPEMTVRYYISSADLTAEKFATAIRNHWHVENKLHWRLDVVMNEDDCKIRRGNAAELFSGIRHIAINILTNDKVFKAGLRRKMRKAAMDRNYLASVLAGSGLS
PKYQSTAALLVNRSQDDTAATALNDQQADVGLIYTYKDLITRPVILNKVAKELKSTYPTLTSTALAKMITVSSTTNSQIFSIAVRSTSSQEAKDIANETASVFKNEAVKLMGKTISNVTIVSSGLKNNTPVFPNTK
GDTSWIKTGKVAWDWWNDWNLKGVPFKAGINMDTYKYYIDFASRNGLEFIVLDEGWYDPKSGDMLTVIPELDLPELIAYGKSKGVEIVLWTVFNVLDSQLEAACKKYADMGIKGFKVDFLDRDDQTAVEMVYRIAEMTARYKLTLDLHGIYKPTGINRTYPHII
MNSENSKWQAIQESTFALARKCEEFDSDGITVYLFSKTFQRYDYVNSAKVKQLFAENSPSETTNLVGVLQDAINSYFQRKSLGKTKPAGEVILVITDGAPVDSQAVCEVIIKATHLVESANELRISIIQVGSDSHATKFLKALDDHLQSVGAKFDICDTITLDELEITNLSDVLMKAITDLEHHHHHH
